Measurements as given in patent US20230039279A1, “INFLAMMATION-RESPONSIVE ANTI-INFLAMMATORY HYDROGELS” (Nanyang Technological University, priority 2019, published 2023).
“Also recorded” adds a separate entry of the source.

Experiments:
[1] = test system: MMPs; assay: PMA skin inflammation mouse model, MMP activity by MMPSense fluorescent imaging; assay type: in vivo; details: 24 hours after subcutaneous PMA injection
Method: (§1) We established a mouse model of skin inflammation using phorbol 12-myristate 13-acetate (PMA) as a stimulant (FIG. 12A) which could induce the upregulation of MMPs captured by MMPSense probe. At the PMA injection sites 24 hours post PMA injection, we observed a red area whose extent was associated with the increase in PMA amounts injected (FIG. 12B). […] In addition, there was a basal of amount of MMP which generated the lowest fluorescent signal at PMA-free PBS buffer injection site. Thus, as more PMA was subcutaneously injected, the fluorescent intensity rose; and more importantly this increase in signal intensity correlated with the extent of the red area on the dorsal side of mice. Protein expression was also studied as skin tissue at the PMA injection sites were retrieved for MMP-9 quantification using ELISA kit (FIG. 12E). […] Overall, PMA subcutaneous injection with increasing amounts could induce subcutaneous inflammation with increasing levels of severity, resulting in more MMP-9 secretion.

[2] = test system: MMP-9; assay: PMA skin inflammation mouse model, MMP-9 quantification in skin tissue by ELISA; assay type: in vivo; details: skin tissue at injection site
Method: as §1

[3] = test system: RAW 264.7 murine macrophages; assay: WST-1 relative metabolic activity of macrophages treated with hydrogel releasates; assay type: cell-based; details: 0.6 mg/mL freely dissolved drug, equivalent dosage; 72 hours treatment
Method: RAW 264.7 murine macrophages were cultured in high glucose DMEM (Gibco Laboratories) supplemented with 10% FBS (Gibco Laboratories), and 1% penicillin/streptomycin (Gibco Laboratories) at 37° C. in 5% CO2 atmosphere. RAW 264.7 macrophages at passages of 20-30 were seeded in 96-well plates (Corning®) at an initial seeding density of 2×10^4 cells/well and incubated at 37° C. for 24 hours. A volume of 100 μL of each hybrid hydrogel (GEL-iP and scrGEL-iP) fabricated with 1.7% (w/v) of PEG and 5% (w/v) of ibuprofen-loaded PLGA microparticles was incubated in 500 μL of phenol red-free DMEM (Gibco Laboratories) culture medium for 2 hours in the presence and absence of 3 μg/ml of MMP-9 (FIG. 4A). […] Afterwards, the releasates were removed from the treated macrophages; and the in vitro metabolic activity of treated cells was evaluated using WST-1 cell proliferation assay (Abcam) as per manufacturer's protocol. […] A volume of 100 μL of this medium was then transferred into a new 96-well plate; and its absorbance at 450 nm and 690 nm was recorded using a microplate reader (SpectraMax M5). To calculate relative metabolic activity, all the absorbance values at 450 nm were subtracted by the values at the reference wavelength of 690 nm and the background absorbance to achieve corrected absorbance values. Afterward, the relative metabolic activity was calculated as follows: […]

[4] = Tube-inversion gelation screening of peptide crosslinkers with PEG-VS and ibu-PLGA particles; assay type: physicochemical
Method: Peptide-crosslinked hydrogels were prepared by reacting 4-arm poly(ethylene glycol)-vinyl sulfone (PEG-VS) (20 kDa, Sigma Aldrich, St. Louis, Mo., USA) with bis-cysteine peptides (Genscript, Hong Kong) in stoichiometric ratio. Each precursor was dissolved in either triethanolamine (TEOA) buffer (0.3M) or PBS/NaOH buffer (pH=10). Typically, to prepare 117 μL of peptide-crosslinked hydrogels with 4.2% (w/v) PEG content, 5 mg of PEG-VS was dissolved in 100 μL of a buffer solution in a glass vial and mixed with a stoichiometric amount of a peptide crosslinker dissolved in 17 μL of the same buffer solution. Hydrogels with 4.2% (w/v) PEG content were evaluated in the preliminary screening of peptide crosslinkers. Hydrogels with 1.7% (w/v) PEG content were used in all subsequent in vitro and in vivo experiments. To form hybrid hydrogels consisting of PLGA particles (with or without ibuprofen) embedded in peptide-crosslinked hydrogels, the aforementioned precursors were dissolved separately in a buffer solution containing suspended PLGA particles at a concentration of 5% (w/v).
To identify an optimal peptide crosslinker for GEL-iP, we performed qualitative screening of 8 peptide sequences (Table 3 and FIG. 14) by evaluating the influence of substrate and spacer choices on the gelation and cleavability of hybrid hydrogels. In addition, buffers in which gelation occurred was also investigated because their environmental pH might affect the deprotonation of thiols and subsequently influence the crosslinking process. For each combination of substrate, spacer and buffer, the feasibility of gelation was visually inspected via a tube-inversion method. A stoichiometric amount of a peptide crosslinker was added to a glass vial containing a mixture of PEG-VS solution and suspended ibu-PLGA particles. In a parallel experiment, another vial with the same mixture composition, but without the peptide crosslinker of interest, was used as a control. The two vials were inverted at regular intervals until the mixture in one vial stopped flowing despite gravity indicating successful gelation. An example of the successful gelation of a typical hybrid hydrogel was captured in photographs of glass vials A1 and A2 (FIG. 2). […] This solid white appearance resulted from the white ibu-PLGA particles. In the absence of any peptide crosslinker, the precursor mixture in the control vial A2 remained free-flowing, indicating absence of gelation.

[5] = target: T1, MMP-9 (Homo sapiens, UniProt P14780); assay: MMP-9 cleavability of hybrid hydrogels (released particles seen under optical microscope); assay type: biochemical; set-up: purchased Merck; details: 3 μg/ml MMP-9 in PBS, 37° C., 20 hours
Method: Each hybrid hydrogel of 20 μL volume in a 500 μL Eppendorf tube was incubated at 37° C. with 3 μg/ml of MMP-9 (83 kDa, Merck) in PBS buffer (DPBS/modified, without calcium and magnesium, HyClone™). In a control experiment, another hybrid hydrogel with the same composition was immersed in PBS buffer without MMP-9. After 20 hours of incubation, the medium surrounding the hybrid hydrogel was sampled onto a cover slip and observed under an optical microscope (Olympus CKX53SF, Japan) to inspect for the presence of released particles.
The selected concentration of MMP-9 is within the range of MMP-9 expression in clinical wound fluids and synovial fluids of patients with rheumatoid arthritis and osteoarthritis [Ladwig, G. P. et al. Wound Repair and Regeneration 10(1) 26-37 (2002); Li, Z. et al. Journal of Diabetes and its Complications 27(4) 380-382 (2013)]. In a typical successful cleavage by MMP-9, the photographs of vials B1 and B2 in FIG. 2 show the appearance of a hybrid hydrogel, which had the same composition as that in vial A1, after prolonged exposure to a buffer with and without MMP-9 respectively. […] The optical microscope image C1 verified the presence of ibu-PLGA particles in the resulting liquid mixture of vial B1 confirming the successful digestion of this hybrid hydrogel by MMP-9. In contrast, MMP-9-free PBS buffer added after gelation was observed as a clear liquid phase in vial B2. The optical microscope image C2 also confirmed the absence of any released lbu-PLGA particles in vial B2.
Target sequence in this assay (P14780 107-707 limits assumed): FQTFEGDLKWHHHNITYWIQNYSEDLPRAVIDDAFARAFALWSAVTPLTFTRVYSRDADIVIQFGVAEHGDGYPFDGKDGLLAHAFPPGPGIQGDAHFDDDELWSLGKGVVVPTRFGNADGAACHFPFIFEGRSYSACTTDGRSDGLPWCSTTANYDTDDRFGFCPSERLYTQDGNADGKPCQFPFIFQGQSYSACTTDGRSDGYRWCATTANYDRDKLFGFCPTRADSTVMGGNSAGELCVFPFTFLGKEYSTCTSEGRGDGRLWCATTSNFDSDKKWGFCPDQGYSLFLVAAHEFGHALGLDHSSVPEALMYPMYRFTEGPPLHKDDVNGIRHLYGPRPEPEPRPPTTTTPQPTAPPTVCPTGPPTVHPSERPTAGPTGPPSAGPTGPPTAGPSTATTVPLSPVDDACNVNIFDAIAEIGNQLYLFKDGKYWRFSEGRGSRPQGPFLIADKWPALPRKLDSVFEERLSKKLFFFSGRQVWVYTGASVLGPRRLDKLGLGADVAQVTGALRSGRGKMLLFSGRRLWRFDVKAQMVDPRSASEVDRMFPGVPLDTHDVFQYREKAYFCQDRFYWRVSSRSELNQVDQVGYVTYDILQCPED

[6] = target: T1, MMP-9; assay: Protease specificity of peptide anchor (MMP-9 versus Cathepsin B and HNE); assay type: biochemical
Source text: A) The cumulative liberation of ibuprofen (LIbu) increased corresponding to the increase in the MMP-9 concentrations. Absence of diffusion-driven basal release in the absence of MMP9 protease (bottom line). B) The specificity of GPRSLSGRRCG (SEQ ID NO: 20) sensitivity to MMP-9 compared to Cathepsin B and HNE. Error bars represent standard error of the means of n=4 replicates.
FIG. 9 supports the hypothesis that protease-sensitive drug release can be achieved from an ibuprofen-conjugated PEG hydrogel upon exposure to clinically relevant protease concentration of 1 ug/ml. […] LC-MS analysis confirmed the presence of the liberated ibuprofen bearing fragment (ibu-GPQG, LC peak at elution time of 14.6 min, MS peak at m/z=546.20) in the supernatant collected after 2 days of hydrogel exposure to MMP9 solution (FIG. 9B). In contrast, this peak is absent from the supernatant collected when the hydrogel was exposed to a control buffer without MMP9. Since the concentration of active MMP9 in human wound fluid falls within the range of 0.3-4.8 μg/ml, our data in FIG. 10A support the feasibility of drug release at a clinically relevant protease concentration.
Target sequence in this assay (P14780 94-707): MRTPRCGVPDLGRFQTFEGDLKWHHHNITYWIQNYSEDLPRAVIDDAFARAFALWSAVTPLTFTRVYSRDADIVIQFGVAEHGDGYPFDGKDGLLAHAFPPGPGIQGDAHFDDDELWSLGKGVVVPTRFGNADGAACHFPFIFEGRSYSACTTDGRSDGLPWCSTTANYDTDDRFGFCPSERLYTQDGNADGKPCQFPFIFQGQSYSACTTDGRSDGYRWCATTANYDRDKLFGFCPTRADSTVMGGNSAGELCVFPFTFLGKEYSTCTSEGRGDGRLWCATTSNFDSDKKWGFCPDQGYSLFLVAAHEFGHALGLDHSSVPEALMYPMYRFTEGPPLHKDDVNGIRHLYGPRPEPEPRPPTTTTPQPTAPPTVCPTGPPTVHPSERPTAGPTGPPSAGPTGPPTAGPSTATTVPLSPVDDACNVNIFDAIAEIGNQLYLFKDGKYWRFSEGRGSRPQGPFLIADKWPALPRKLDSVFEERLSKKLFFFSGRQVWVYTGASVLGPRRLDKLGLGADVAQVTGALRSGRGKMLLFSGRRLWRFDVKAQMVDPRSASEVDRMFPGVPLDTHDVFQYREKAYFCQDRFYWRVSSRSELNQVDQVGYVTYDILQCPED

[7] = target: T1, MMP-9; assay: Degradation of plural protease-cleavable hydrogel, MMP-9 alone; assay type: biochemical
Method: (§2) A) Schematic of the mechanism of dual protease-responsive combinational hydrogel system. B) Photographs show the cleavability of H2-M2 combinational hydrogels over 24 hours (n=3). (i) Control, (ii) With HNE protease; (iii) With MMP-9 protease; and (iv) With both HNE and MMP-9 proteases. C) Quantification of the average number of PLGA particles released from combinational hydrogels in the presence of zero, single or dual proteases over 24 hours (n=3). Error bars represent s.e.m of n=3 replicates. p-values were determined by one-way ANOVA with Tukey post-hoc analysis. (***) and (ns) denote p≤0.001 and p≥0.05 (not significant) respectively.
Target sequence in this assay (P14780 94-707): as above

[8] = target: T2, HNE (Homo sapiens, UniProt P08246); assay: Degradation of plural protease-cleavable hydrogel, HNE alone; assay type: biochemical
T2 sequence (P08246 30-267): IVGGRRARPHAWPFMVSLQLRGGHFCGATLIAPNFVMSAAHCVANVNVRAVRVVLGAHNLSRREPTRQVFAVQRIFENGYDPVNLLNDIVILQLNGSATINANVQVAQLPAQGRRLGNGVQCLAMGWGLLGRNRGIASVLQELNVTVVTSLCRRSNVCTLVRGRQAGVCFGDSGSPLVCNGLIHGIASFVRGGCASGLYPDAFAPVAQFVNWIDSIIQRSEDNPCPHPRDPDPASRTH
Method: as §2

CCCCCCCCCCCCCC(=O)O[C@@H]1[C@@H](C)[C@@]2(O)[C@@H](C=C(CO)C[C@]3(O)C(=O)C(C)=C[C@@H]23)[C@@H]2C(C)(C)[C@]12OC(C)=O [PMA, phorbol 12-myristate 13-acetate]
MMP activity (fluorescent signal), difference 4 μg versus 0.4 μg of PMA [1]: 1.9 fold
amount of MMP-9 secreted, difference 4 μg versus 0 μg PMA [2]: 10 fold
amount of MMP-9 secreted, difference 4 μg versus 0.4 μg PMA [2]: 5 fold

CC(C)Cc1ccc(C(C)C(=O)O)cc1 (stereo not drawn) [ibuprofen]
relative metabolic activity of macrophages [3]: ~0%

GCRD-AVRW↓LLTA-DRCG (GCRDAVRWLLTADRCG; GCRD-AVRWLLTA-DRCG) [peptide (8)]
gelation by crosslinking with PEG-VS ([4]; PBS/NaOH buffer): preventing gelation
gelation by crosslinking with PEG-VS ([4]; TEOA buffer): preventing gelation

GCRD-GPQG↓IWGQ-DRCG (GCRDGPQGIWGQDRCG; GCRD-GPQGIWGQ-DRCG) [peptide (5), spacer GCRD]
cleavability of hybrid hydrogel crosslinked with the peptide by MMP-9 [5]: could be digested by MMP-9

GCRD-KGPRS↓LSGK-DRCG (GCRDKGPRSLSGKDRCG; GCRD-KGPRSLSGK-DRCG) [(7)]
cleavability of hybrid hydrogel crosslinked with the peptide by MMP-9 [5]: could be digested by MMP-9; also recorded: successful hydrogel cleavage by MMP-9

GCRD-LGRM↓GLPGK-DRCG (GCRDLGRMGLPGKDRCG; GCRD-LGRMGLPGK-DRCG) [peptide (6), spacer GCRD, same substrate as peptide (2)]
cleavability of hybrid hydrogel crosslinked with the peptide by MMP-9 [5]: not cleaved

GCRR-AVRW↓LLTA-RRCG (GCRRAVRWLLTARRCG; GCRR-AVRWLLTA-RRCG) [peptide (3)]
gelation by crosslinking with PEG-VS ([4]; PBS/NaOH buffer): could induce gelation
gelation by crosslinking with PEG-VS ([4]; TEOA buffer): not
cleavability of hybrid hydrogel crosslinked with the peptide by MMP-9 [5]: not cleaved

GCRR-GPQG↓IWGQ-RRCG (GCRRGPQGIWGQRRCG; GCRR-GPQGIWGQ-RRCG) [peptide (4), spacer GCRR]
cleavability of hybrid hydrogel crosslinked with the peptide by MMP-9 [5]: could be digested by MMP-9; also recorded: successful hydrogel cleavage by MMP-9

GCRR-KGPRSLSGK-RRCG (GCRRKGPRSLSGKRRCG; GCRR-KGPRSLSGK-RRCG) [peptide (1)]
cleavability of hybrid hydrogel crosslinked with the peptide by MMP-9 [5]: could be digested by MMP-9; also recorded: successful hydrogel cleavage by MMP-9

GCRR-LGRM↓GLPGK-RRCG (GCRRLGRMGLPGKRRCG; GCRR-LGRMGLPGK-RRCG) [peptide (2), spacer GCRR, same substrate as peptide (6)]
cleavability of hybrid hydrogel crosslinked with the peptide by MMP-9 [5]: not cleaved

GPRSLSGRRCG (GPRSLSGRRCG)
specificity toward MMP-9 compared to cathepsin B and HNE [6]: good specificity toward MMP-9

GRCR-GPRS↓LSG-RCRG [M2]
preferential cleavage of peptide substrate by MMP-9 [7]: preferentially cleaved

GRCR-PMAV↓VQSVP-RCRG [H2]
preferential cleavage of peptide substrate by HNE [8]: preferentially cleaved
